For one substance, stoichiometry N results are on record in PMC6437178.

The assay concerns the target engineered Salmo salar Ctr1 crystallization construct sCtr1_(cryst) (Salmo salar | not stated). Briefly: crystal structure; hanging-drop vapor diffusion at 20 °C; 26-28% PEG 400, 50 mM zinc acetate, 50 mM sodium cacodylate pH 5.9; protein in CYMAL-5; Cu^+-free (3.0 Å) and Cu^+-bound (3.2 Å) states; trimer on the crystallographic three-fold axis.

“engineered Salmo salar Ctr1 crystallization construct sCtr1_(cryst) (from UniProt A0A1S3KYH5 41-93; A0A1S3KYH5 121-184)”: the stoichiometry N was 3.

Broadly, the stoichiometry N is a count of units in the complex or per binding partner.
